Source: patent publication US20150283263A1

Molecular target: CD25 (human) (UniProt P01589)
Test: flow cytometry on Karpas299 cells (surface CD25); negative control antibody

Sequence of CD25 (human) (P01589 22-272): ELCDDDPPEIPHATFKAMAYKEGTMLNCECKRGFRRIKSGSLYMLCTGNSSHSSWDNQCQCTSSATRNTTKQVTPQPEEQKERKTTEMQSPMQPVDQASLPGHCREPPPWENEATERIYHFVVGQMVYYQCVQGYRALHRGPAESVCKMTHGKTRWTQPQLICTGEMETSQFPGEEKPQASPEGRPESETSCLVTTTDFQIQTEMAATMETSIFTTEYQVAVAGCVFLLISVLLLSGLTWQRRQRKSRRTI

- EC50: 537 µg/mL
Substance: B12 anti-HIV gp120 antibody
